Results on one variant are retold here after IntAct's records for PubMed 19696784.

B1: Microtubule protein alp7 (Schizosaccharomyces pombe (strain ATCC 38366 / 972)), Q9URY2 (parent)
chain: MSDIVSSSTDYSRRSPSSSSIGTNETDHTGFHEKRQGASSESLIPPAQRSSEESMPAPKLFPKLTSKPNPQLNLKDTLNKRVSDRLQALELNKSFDFSGTPRPMHPISHPLSQHKTPEFKHRKRNVESILTPKNPSLFSSSNAASQRGSLNTAPSNFAYSHSSSLQTSASSRPPVLSNGSFPRQTNTAPLNPPVHLKDNIRNSATPSTSQADIPTQYPINSTQKQQAKYEAEIEGYKAKLAGTYHEISVLQNTIVNVSGQLIAVNDQLQQLRSGKASTSPSTKDTNMRLVEGHNEETLALQRGKYTQEEVDKLIQERMEKVAEDLHAQYSAKHTQKINAFKANYARKYEATIQELQNQIGTAPNAPKISNSNWEEERRALKADNQTLQKQLEKAIQERQDMSDFLNNFKADMAKSDKLLMQQQSQQTGDLETLRLQLQALQEELRVEREERQQLIQMSEDLVIAMDQLNLEQKS
partner: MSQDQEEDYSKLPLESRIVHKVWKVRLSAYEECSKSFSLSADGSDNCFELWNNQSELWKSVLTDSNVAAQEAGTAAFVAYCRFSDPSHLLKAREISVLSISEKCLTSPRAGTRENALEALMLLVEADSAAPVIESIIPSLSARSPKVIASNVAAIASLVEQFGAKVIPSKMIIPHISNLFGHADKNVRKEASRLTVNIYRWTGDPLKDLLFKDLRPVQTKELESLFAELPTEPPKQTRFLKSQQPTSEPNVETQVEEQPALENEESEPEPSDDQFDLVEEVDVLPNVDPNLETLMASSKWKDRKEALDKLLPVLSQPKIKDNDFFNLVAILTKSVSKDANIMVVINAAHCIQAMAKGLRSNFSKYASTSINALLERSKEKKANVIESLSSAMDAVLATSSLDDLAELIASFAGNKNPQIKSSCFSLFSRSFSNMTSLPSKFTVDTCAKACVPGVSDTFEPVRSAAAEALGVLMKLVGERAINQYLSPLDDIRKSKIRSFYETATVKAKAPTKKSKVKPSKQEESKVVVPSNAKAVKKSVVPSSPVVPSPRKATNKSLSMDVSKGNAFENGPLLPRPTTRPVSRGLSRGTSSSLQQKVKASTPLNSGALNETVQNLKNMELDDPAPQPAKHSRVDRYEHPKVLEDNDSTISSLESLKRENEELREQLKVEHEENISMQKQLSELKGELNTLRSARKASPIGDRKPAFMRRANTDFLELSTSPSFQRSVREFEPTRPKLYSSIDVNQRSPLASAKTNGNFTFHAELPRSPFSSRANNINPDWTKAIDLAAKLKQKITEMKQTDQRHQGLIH

Variants of B1 are the subject of the test. The conditions noted are these: with alp14_schpo alp14, O94534.
L461A: the “effect of a mutation on the interaction” value was “disrupting interaction”.
